# Test results reported in the supplement of paper PMC9112550, “Optimization of the antimicrobial peptide Bac7 by deep mutational scanning” (BMC Biology, 2022).
# Tested on: Escherichia coli TOP10
# Assay: shrunken log2 fold change of peptide-encoding DNA abundance (4.5 h post-induction vs induction); higher = less antimicrobial activity (less host growth inhibition)
# Conditions: time post-induction: 4.5 h; library: site-saturation at positions 5, 18, 19, 20
# 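Note: peptides expressed intracellularly from a pBAD plasmid library in pooled LB shake-flask culture, induced with 0.3% L-arabinose, DNA abundance read by NGS, three biological replicates, DESeq2 with apeglm shrinkage.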
row,Sequence,shrunken log2 fold change
1,RRIRARPPRLPRPRPRPSRAPRP,0.555
2,RRIRPRPPRLPRPRPRPFDAPRP,0.0141
3,RRIRTRPPRLPRPRPRPCIMPRP,-0.2
4,RRIRYRPPRLPRPRPRPCCQPRP,0.0173
5,RRIRCRPPRLPRPRPRPEAGPRP,0.4
6,RRIRNRPPRLPRPRPRPRDIPRP,-0.138
7,RRIRKRPPRLPRPRPRPGHCPRP,0.00694
8,RRIRWRPPRLPRPRPRPPGIPRP,0.41
9,RRIRVRPPRLPRPRPRPYALPRP,-0.848
10,RRIRERPPRLPRPRPRPELAPRP,0.161
11,RRIRERPPRLPRPRPRPYWYPRP,-1.83
12,RRIRWRPPRLPRPRPRPKHCPRP,0.0806
13,RRIRLRPPRLPRPRPRPQTWPRP,0.0171
14,RRIRQRPPRLPRPRPRPCRTPRP,0.0557
15,RRIRTRPPRLPRPRPRPAFSPRP,0.193
16,RRIRARPPRLPRPRPRPWCFPRP,0.0976
17,RRIRFRPPRLPRPRPRPAMQPRP,0.109
18,RRIRGRPPRLPRPRPRPEKRPRP,0.993
19,RRIRKRPPRLPRPRPRPTLFPRP,0.111
20,RRIRERPPRLPRPRPRPGCFPRP,0.199
21,RRIRERPPRLPRPRPRPYNPPRP,0.00932
22,RRIRVRPPRLPRPRPRPVNNPRP,-0.39

row,Sequence,shrunken log2 fold change
1,RRIRWRPPRLPRPRPRPEDPPRP,0.157
2,RRIRMRPPRLPRPRPRPCENPRP,0.0192
3,RRIRRRPPRLPRPRPRPSASPRP,0.101
4,RRIRDRPPRLPRPRPRPYLMPRP,-0.187
5,RRIRVRPPRLPRPRPRPHQRPRP,-0.124
6,RRIRNRPPRLPRPRPRPCQSPRP,-0.212
7,RRIRDRPPRLPRPRPRPLERPRP,0.464
8,RRIRWRPPRLPRPRPRPDFIPRP,-0.395
9,RRIRVRPPRLPRPRPRPWWDPRP,0.00445
10,RRIRLRPPRLPRPRPRPMDSPRP,-0.172
11,RRIRNRPPRLPRPRPRPIINPRP,-0.265
12,RRIRMRPPRLPRPRPRPEDEPRP,2.06
13,RRIRPRPPRLPRPRPRPCPCPRP,-0.481
14,RRIRGRPPRLPRPRPRPRWGPRP,0.852
15,RRIRKRPPRLPRPRPRPWNEPRP,-0.0249
16,RRIRARPPRLPRPRPRPENCPRP,0.177
17,RRIRMRPPRLPRPRPRPFYFPRP,-0.569
18,RRIRSRPPRLPRPRPRPHGLPRP,-0.0195
19,RRIRMRPPRLPRPRPRPFTFPRP,-0.096
20,RRIRMRPPRLPRPRPRPYLWPRP,0.0857
21,RRIRIRPPRLPRPRPRPILLPRP,-0.266
22,RRIRYRPPRLPRPRPRPSAVPRP,-0.175

row,Sequence,shrunken log2 fold change
1,RRIRYRPPRLPRPRPRPMRDPRP,-0.151
2,RRIRERPPRLPRPRPRPLPSPRP,-0.0852
3,RRIRCRPPRLPRPRPRPGEGPRP,-0.0346
4,RRIRNRPPRLPRPRPRPDTGPRP,-0.0135
5,RRIRHRPPRLPRPRPRPNTYPRP,-0.742
6,RRIRVRPPRLPRPRPRPSALPRP,-0.0271
7,RRIRARPPRLPRPRPRPMTMPRP,0.245
8,RRIRQRPPRLPRPRPRPSGVPRP,-0.141
9,RRIRNRPPRLPRPRPRPMNLPRP,0.0249
10,RRIRQRPPRLPRPRPRPHVRPRP,-0.00149
11,RRIRFRPPRLPRPRPRPNHHPRP,-1.02
12,RRIRARPPRLPRPRPRPMNLPRP,-0.313
13,RRIRIRPPRLPRPRPRPETWPRP,0.142
14,RRIRARPPRLPRPRPRPCRGPRP,-0.1
15,RRIRSRPPRLPRPRPRPFPMPRP,-0.264
16,RRIRKRPPRLPRPRPRPYDQPRP,0.0359
17,RRIRYRPPRLPRPRPRPEMTPRP,-0.0508
18,RRIRFRPPRLPRPRPRPAQDPRP,0.381
19,RRIRRRPPRLPRPRPRPGSQPRP,-0.0144
20,RRIRIRPPRLPRPRPRPETSPRP,-0.239
21,RRIRKRPPRLPRPRPRPADMPRP,0.399
22,RRIRFRPPRLPRPRPRPQTWPRP,-0.743

row,Sequence,shrunken log2 fold change
1,RRIRGRPPRLPRPRPRPMQPPRP,1.77
2,RRIRQRPPRLPRPRPRPAMKPRP,-0.204
3,RRIRARPPRLPRPRPRPNCYPRP,-0.211
4,RRIRGRPPRLPRPRPRPFQYPRP,0.105
5,RRIRDRPPRLPRPRPRPWKQPRP,-0.0551
6,RRIRYRPPRLPRPRPRPSPPPRP,-0.469
7,RRIRNRPPRLPRPRPRPNNEPRP,-0.208
8,RRIRCRPPRLPRPRPRPIMSPRP,-0.128
9,RRIRGRPPRLPRPRPRPDTAPRP,1
10,RRIRPRPPRLPRPRPRPGCQPRP,-0.0622
11,RRIRQRPPRLPRPRPRPWHNPRP,-0.385
12,RRIRDRPPRLPRPRPRPRCSPRP,-0.0967
13,RRIRCRPPRLPRPRPRPRQAPRP,0.00566
14,RRIRQRPPRLPRPRPRPWQCPRP,-0.1
15,RRIRARPPRLPRPRPRPQHAPRP,0.269
16,RRIRKRPPRLPRPRPRPCPWPRP,0.332
17,RRIRQRPPRLPRPRPRPGVHPRP,0.0118
18,RRIRTRPPRLPRPRPRPRFSPRP,-0.14
19,RRIRKRPPRLPRPRPRPTQEPRP,0.294
20,RRIRDRPPRLPRPRPRPHEHPRP,0.00488
21,RRIRHRPPRLPRPRPRPAEKPRP,-0.0153
22,RRIRIRPPRLPRPRPRPMHMPRP,-0.0247

row,Sequence,shrunken log2 fold change
1,RRIRCRPPRLPRPRPRPNFMPRP,-0.448
2,RRIRHRPPRLPRPRPRPGTKPRP,-0.0254
3,RRIRHRPPRLPRPRPRPPRPPRP,0.664
4,RRIRGRPPRLPRPRPRPDPQPRP,0.694
5,RRIRVRPPRLPRPRPRPYNVPRP,-0.0185
6,RRIRSRPPRLPRPRPRPLAAPRP,0.562
7,RRIRERPPRLPRPRPRPEELPRP,0.174
8,RRIRIRPPRLPRPRPRPYAEPRP,-0.844
9,RRIRVRPPRLPRPRPRPNSTPRP,-0.515
10,RRIRYRPPRLPRPRPRPQPYPRP,-0.649
11,RRIRTRPPRLPRPRPRPCHDPRP,-0.215
12,RRIRKRPPRLPRPRPRPGLFPRP,0.556
13,RRIRERPPRLPRPRPRPCSQPRP,-0.0493
14,RRIRTRPPRLPRPRPRPIYIPRP,-0.949
15,RRIRGRPPRLPRPRPRPFDIPRP,0.198
16,RRIRLRPPRLPRPRPRPDYGPRP,-0.23
17,RRIRTRPPRLPRPRPRPCHSPRP,-0.039
18,RRIRGRPPRLPRPRPRPYQWPRP,0.0268
19,RRIRYRPPRLPRPRPRPWHMPRP,-0.311
20,RRIRHRPPRLPRPRPRPWPPPRP,0.491
21,RRIRTRPPRLPRPRPRPKRVPRP,-0.0636
